The record followed here is patent US20220356245A1 (FORTY SEVEN, published 2022).

Read-outs that look alike come from different tables or passages of the source.

For assay [1], the target named is T1, hu-sCD47-6His; extracellular domain of human CD47 antigen with 6His-tag (human).
T1 construct: also called hCD47-his; soluble hCD47
In words: SPR Biacore.
Description: (§1) An anti-human or anti-mouse IgG (Fc) was first immobilized on the surface of Serie S Sensor Chips CM5 using the human or mouse antibody capture and amine coupling kits, following the manufacturer's instructions (GE Healthcare). […] The mouse, chimerized or humanized antibodies to be tested were then captured onto the appropriate anti-mouse or anti-human IgG surface in all flow cells except flow cell 1 used as control, at concentration and contact time adjusted so that ˜300 RU were captured on the surface. Binding kinetics were studied by passing increasing concentrations of hCD47-his in a series of five 10 minute injections through all flow cells at a rate of 30 μL/min. […] Following the final injection, buffer was passed across each flow cell for 60 minutes (mouse) or 30 minutes (human) to monitor the dissociation of bound antigen. Regeneration of the binding surface was carried out at the end of the cycle by flowing 3 M MgCl₂ for 60 s at 20 μL/min followed by 10 mM glycine-HCl, pH 1.7 for 180 s at 10 μl/min (for human) or by flowing 10 mM glycine-HCl, ph 1.7 for 360 s at 10 μl/min (for mouse). A second cycle with the same antibodies but no antigen was run as a control. Kinetics binding constants were estimated by non-linear fitting of the sensogram data to the 1:1 binding model provided by the Biacore T200 evaluation software.

Assay [2] deals with T2, human CD47 (hCD47) expressed on cells (human, UniProt Q08722 19-323).
T2 construct: Transfected CHO cells or endogenous CD47 of human cells; also called CHO-hCD47; CD47 on Raji cells
In words: flow cytometry, Raji cells. (In general: Flow cytometry measures light scatter and fluorescence of single cells or particles in a stream.)

The target of assay [3] is T2, human CD47 (hCD47) expressed on cells. Briefly: flow cytometry, Raji cells, competition with hSIRPα.
The target is the same in assay [4]. In words: flow cytometry on Raji cells, hIgG4 format, delta MFI.
For assay [5] the target is unchanged. Briefly: flow cytometry on Raji cells, hIgG4 format: inhibition of hSIRPα binding to hCD47.
In assay [6] the target is T1, hu-sCD47-6His; extracellular domain of …. In words: ELISA, coated glycosylated hCD47-His. (ELISA stands for enzyme-linked immunosorbent assay.)
Protocol: (§2) The EC50 and EC95 values were calculated by using the non-linear regression/log (antibody) versus response (four parameters) model of the GraphPad Prism software.
Assay [7] has as its target T3, N-deglycosylated soluble hCD47-His (PNGase treated) (human, N-glycans removed with PNGase).
T3 construct: also called deglycosylated-hCD47; N-Deglycosylated hCD47-His
Briefly: ELISA; against glycosylated hCD47-His.
Protocol: as §2

For assay [8], the target named is T3, N-deglycosylated soluble hCD47-His …. Briefly: ELISA, coated N-deglycosylated hCD47-His.
Assay [9] concerns the target T1, hu-sCD47-6His; extracellular domain of …. Briefly: ELISA, one-site binding saturation fit, glycosylated hCD47.
Protocol: (§3) The equilibrium binding constant values were calculated by using the binding saturation/one-site binding model of the GraphPad Prism software (mean +/− SD of triplicates).
The target is the same in assay [10]. The description is as above. This is another data set of the same source.
Protocol: (§4) The Bmax values were calculated by using the binding saturation/one-site binding model of the GraphPad Prism software (mean +/− SD of triplicates).
Assay [11] addresses T3, N-deglycosylated soluble hCD47-His …. In words: ELISA, one-site binding saturation fit, deglycosylated hCD47.
Protocol: as §3
The target is the same in assay [12]. Described as above. The source holds these as a separate data set.
Protocol: as §4
In assay [13] the target is T2, human CD47 (hCD47) expressed on cells. In words: flow cytometry on Raji cells, hIgG4 format, delta MFI. This is another data set of the same source.
The target is the same in assay [14]. In words: flow cytometry on Raji cells, hIgG4 format: inhibition of hSIRPα binding to hCD47. The source holds these as a separate data set.
Assay [15] has as its target T1, hu-sCD47-6His; extracellular domain of …. In words: SPR Biacore. This is another data set of the same source. In general terms: SPR reads the build-up and loss of mass on a sensor chip optically.
Description: as §1
Assay [16] concerns the target T2, human CD47 (hCD47) expressed on cells. Briefly: flow cytometry, Raji cells. The source holds these as a separate data set.
Assay [17] addresses T1, hu-sCD47-6His; extracellular domain of …. Briefly: SPR Biacore; head read as x 10^-4.
Description: as §1
The target of assay [18] is T4, mouse CD47 (mCD47) expressed on CHO cells (mouse, UniProt Q61735 19-303).
T4 construct: whole, on cells; also called CHO-mCD47
T4 sequence (looked up): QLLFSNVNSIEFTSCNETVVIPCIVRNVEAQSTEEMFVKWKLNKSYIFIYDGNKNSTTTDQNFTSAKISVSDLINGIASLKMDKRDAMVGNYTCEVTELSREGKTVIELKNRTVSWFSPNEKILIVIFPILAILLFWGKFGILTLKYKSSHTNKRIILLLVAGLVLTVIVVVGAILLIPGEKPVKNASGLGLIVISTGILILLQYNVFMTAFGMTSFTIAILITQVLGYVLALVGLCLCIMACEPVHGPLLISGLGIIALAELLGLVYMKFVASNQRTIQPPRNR
Briefly: flow cytometry, CHO-mCD47 cells (not shown).

Assay [19] deals with T2, human CD47 (hCD47) expressed on cells. Briefly: flow cytometry, Raji cells, competition with hSIRPα. The source holds these as a separate data set.
Assay [20] has the same target. Briefly: flow cytometry on Raji cells, hIgG4 format, delta MFI. This is another data set of the same source.
Assay [21] shares this target. Briefly: flow cytometry on Raji cells, hIgG4 format: inhibition of hSIRPα binding to hCD47. The source holds these as a separate data set.
Assay [22] deals with T1, hu-sCD47-6His; extracellular domain of …. Briefly: SPR Biacore. This is another data set of the same source.
Description: as §1
For assay [23], the target named is T2, human CD47 (hCD47) expressed on cells. In words: flow cytometry, Raji cells. The source holds these as a separate data set.
The target is the same in assay [24]. In words: flow cytometry, Raji cells, competition with hSIRPα. The source holds these as a separate data set.

B1: h20-H4-L4Y (candidate 20.29), hIgG4-S228P (antibody, V domains shown)
VH: QVQLVQSGAEVKKPGSSVKVSCKASGYSFTDYYINWVRQAPGQGLEWMGRIYPGIGNTYYNKKFKGRVTITADKSTSTAYMELSSLRSEDTAVYYCARGHYGRGMDYWGQGTTVTVSS
VL: DIVMTQSPDSLAVSLGERATINCKSSQSLLNSIDQKNYLAWYQQKPGQPPKLLIYYASTKESGVPDRFSGSGSGTDFTLTISSLQAEDVAVYFCQQHYSTPWTFGGGAKVEIKR
notes: also called H20-VH4-VL4,Y
In assay [1], B1 returned a Kd of 2.61 nM, a koff of 0.000761 s⁻¹ and a kon of 306000 M⁻¹ s⁻¹. For the same molecule, in [2], it took 0.147 µg/mL to reach a half-maximal effect (EC50). In [3], this molecule returned an IC50 of 0.181 µg/mL. For the same molecule, in assay [4], the “EC50 (read off the curve)” value was around 0.1 µg/mL. Further, the “IC50 (read off the curve)” value in assay [5] is around 0.4 µg/mL.

B2: h20-H2-L5Y (candidate 20.26), huIgG4_S228P format (antibody, V domains shown)
VH: QVQLVQSGAEVKKPGASVKVSCKASGYSFTDYYINWVRQAPGQGLEWMGRIYPGIGNTYYNKKFKGRVTITRDTSASTAYMELSSLRSEDTAVYYCARGHYGRGMDYWGQGTLVTVSS
VL: DIVMTQSPDSLAVSLGERATINCKSSQSLLNSIDQKNYLAWYQQKPGQPPKLLIYYASTKESGVPDRFSGSGSGTDFTLTISGLQAEDVAVYFCQQHYSTPWTFGGGTKVEIRR
notes: also called H20-VH2-VL5,Y; h2O-H2L5Y
Consider B2, for which, in assay [1], the Kd is 2.32 nM, the koff was 0.000699 s⁻¹ and the kon was found to be 306000 M⁻¹ s⁻¹. The molecule further registered an EC50 in [2] of 0.0975 µg/mL. In addition, in assay [6], the EC50 stood at 0.044 nM and the EC95 was 1.33 nM. In assay [7], the “EC50 ratio Deglycosylated/Glycosylated” value is 2.2 ratio and the “EC95 ratio Deglycosylated/Glycosylated” value is 8.5 ratio. In assay [8], the EC50 was determined as 0.096 nM and the EC95 came out at 11.3 nM. Further, in [3], the IC50 came to 0.113 µg/mL. The molecule further showed an equilibrium binding constant in assay [9] of 43.6 pM. Also, the Bmax in assay [10] came to 2.85 OD value. Further, the equilibrium binding constant in assay [11] was 55.7 pM. In addition, the Bmax2 in assay [12] was 1.97 OD value. For the same molecule, the “EC50 (read off the curve)” value in assay [13] was around 0.1 µg/mL. Moreover, in [14], the “IC50 (read off the curve)” value is around 0.2 µg/mL.

B3: h20-VH4-VL4 (candidate 20.19) (antibody, human IgG4 S228P, kappa, V domains shown)
VH: QVQLVQSGAEVKKPGSSVKVSCKASGYSFTDYYINWVRQAPGQGLEWMGRIYPGIGNTYYNKKFKGRVTITADKSTSTAYMELSSLRSEDTAVYYCARGHYGRGMDYWGQGTTVTVSS
VL: DIVMTQSPDSLAVSLGERATINCKSSQSLLNSIDQKNYLAWYQQKPGQPPKLLIYFASTKESGVPDRFSGSGSGTDFTLTISSLQAEDVAVYFCQQHYSTPWTFGGGAKVEIKR
notes: hIgG4-S228P/kappa; also called h20-H4-L4
In assay [15], B3 gave a Kd of 4.15 nM and a kon of 179000 M⁻¹ s⁻¹. Further, the 50% effective concentration (EC50) in assay [16] is 0.139 µg/mL. In assay [17], this molecule showed a koff of 0.000685 s⁻¹. In assay [18], the binding result is reported as “no binding”. Further, in assay [19], the IC50 stood at 0.192 µg/mL. Also, the “EC50 (read off the curve)” value in [4] was around 0.1 µg/mL. The “IC50 (read off the curve)” value in [5] is around 0.3 µg/mL.

B4: h20-VH4-VL5 (candidate 20.20) (antibody, human IgG4 S228P, kappa, V domains shown)
VH: QVQLVQSGAEVKKPGSSVKVSCKASGYSFTDYYINWVRQAPGQGLEWMGRIYPGIGNTYYNKKFKGRVTITADKSTSTAYMELSSLRSEDTAVYYCARGHYGRGMDYWGQGTTVTVSS
VL: DIVMTQSPDSLAVSLGERATINCKSSQSLLNSIDQKNYLAWYQQKPGQPPKLLIYFASTKESGVPDRFSGSGSGTDFTLTISGLQAEDVAVYFCQQHYSTPWTFGGGTKVEIRR
notes: hIgG4-S228P/kappa; also called h20-H4-L5
As to B4, in assay [15], the Kd came out at 3.5 nM and the kon was determined as 192000 M⁻¹ s⁻¹. For the same molecule, a half-maximal response in assay [16] (EC50) required 0.136 µg/mL. This molecule gave a koff in assay [17] of 0.000624 s⁻¹. The binding result in assay [18] is listed as “no binding”. Also, the IC50 in assay [19] was 0.095 µg/mL. Further, in assay [20], the “EC50 (read off the curve)” value is around 0.1 µg/mL. For the same molecule, in assay [21], the “IC50 (read off the curve)” value was around 0.3 µg/mL.

B5: h20-VH2-VL5 (candidate 20.10) (antibody, human IgG4 S228P, kappa, V domains shown)
VH: QVQLVQSGAEVKKPGASVKVSCKASGYSFTDYYINWVRQAPGQGLEWMGRIYPGIGNTYYNKKFKGRVTITRDTSASTAYMELSSLRSEDTAVYYCARGHYGRGMDYWGQGTLVTVSS
VL: DIVMTQSPDSLAVSLGERATINCKSSQSLLNSIDQKNYLAWYQQKPGQPPKLLIYFASTKESGVPDRFSGSGSGTDFTLTISGLQAEDVAVYFCQQHYSTPWTFGGGTKVEIRR
notes: hIgG4-S228P/kappa; also called h20-H2-L5
As to B5, in assay [15], the Kd was 5.85 nM and the kon amounted to 118000 M⁻¹ s⁻¹. For the same molecule, the EC50 in assay [16] was determined as 0.191 µg/mL. The same molecule had a koff in assay [17] of 0.000634 s⁻¹. Also, in [18], the binding result was “no binding”. The molecule also came in with an IC50 in assay [19] of 0.051 µg/mL. Besides, in [13], the “EC50 (read off the curve)” value is around 0.1 µg/mL. Further, in assay [14], the “IC50 (read off the curve)” value is around 0.2 µg/mL.

B6: h20-H4-L5Y (candidate 20.30), hIgG4-S228P (antibody, V domains shown)
VH: QVQLVQSGAEVKKPGSSVKVSCKASGYSFTDYYINWVRQAPGQGLEWMGRIYPGIGNTYYNKKFKGRVTITADKSTSTAYMELSSLRSEDTAVYYCARGHYGRGMDYWGQGTTVTVSS
VL: DIVMTQSPDSLAVSLGERATINCKSSQSLLNSIDQKNYLAWYQQKPGQPPKLLIYYASTKESGVPDRFSGSGSGTDFTLTISGLQAEDVAVYFCQQHYSTPWTFGGGTKVEIRR
notes: also called H20-VH4-VL5,Y
In assay [1], B6 gave a Kd of 2.82 nM, a koff of 0.000693 s⁻¹ and a kon of 254000 M⁻¹ s⁻¹. In addition, the response in assay [2] was half-maximal at 0.105 µg/mL (EC50). The molecule further gave an IC50 in assay [3] of 0.149 µg/mL. Further, in [20], the “EC50 (read off the curve)” value is around 0.1 µg/mL. Also, the “IC50 (read off the curve)” value in assay [21] was around 0.3 µg/mL.

B7: hIgG4 chimeric candidate 22 (mouse VH/VL, human Fcγ4-S228P and human Kappa backbone) (antibody, V domains shown)
VH: QVQLQQPGAELVKPGASVKLSCKASGYTFTTYWMHWVKQRPGQGLEWIGMIHPNSGTTNYNEKFKSKATLTVDKSSSSTYMQLSSLTSEDSAVYYCTRSHYYDGHFSYWGQGTLVTVSA
VL: DIVMSQSPSSLAVSAGEKVTMSCKSSQSLLNSRTRKNYLAWYQQKPGQSPKLLIYWASTRESGVPDRFTGSGSGTDFTLTISSVQAEDLAVYYCKQSYNLWTFGGGTRLEIKR
notes: hIgG4-S228P/kappa; also called Chim; 22
In assay [22], B7 had a Kd of 12.2 nM, a koff of 0.000381 s⁻¹ and a kon of 31200 M⁻¹ s⁻¹. The molecule further came in with an EC50 in assay [23] of 0.122 µg/mL. In assay [6], the EC50 is 0.0387 nM and it took 4.67 nM to reach the 95% level (EC95). In assay [7], the “EC50 ratio Deglycosylated/Glycosylated” value came to 1.1 ratio and the “EC95 ratio Deglycosylated/Glycosylated” value was found to be 1.4 ratio. For the same molecule, in [8], the EC50 was determined as 0.042 nM and the EC95 worked out at 6.67 nM. In assay [24], the IC50 came to 0.14 µg/mL. In addition, the equilibrium binding constant in [9] is 34.4 pM. Moreover, the Bmax in assay [10] came to 2.85 OD value. Also, the equilibrium binding constant in [11] was 31.8 pM. In assay [12], this molecule came in with a Bmax2 of 2.57 OD value.

The Kd is a measure of binding affinity in units of concentration. A high value points to weaker binding. As usually defined, the koff is the first-order rate constant of dissociation. A low value points to slow dissociation. For orientation: kon means a measure of how fast the partners come together. High values mean fast association, low ones slow association. A word on the EC50: it is the concentration giving half of the maximal effect. A higher EC50 goes with lower potency in that assay. The term IC50 denotes the concentration that gives 50% inhibition. Low values mean greater potency in that assay, high ones weaker potency in that assay. Broadly, the EC50 (read off the curve) is the concentration that produces a half-maximal response. Read a high EC50 (read off the curve) as weaker potency. The EC95 is the point of the concentration-response curve where the effect stands at 95%. The low end stands for greater potency, the high end for weaker potency.
